Laboratory results as given in the nanobody polyreactivity screen of Harvey et al. (2022).

Test: yeast display, Sf9 membrane polyspecificity reagent, FACS + sequencing; frameworks hold sequencing errors
Method in brief: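 Galactose-induced (36–48 hours) yeast carrying a synthetic nanobody display library were exposed to 10% biotinylated, detergent-solubilized Sf9 membrane reagent at 4 °C for 1 hour. FACS followed streptavidin microbead enrichment, using low and high (top ~1%) gates for expression (anti-HA) and reagent binding (streptavidin). Colony PCR, MiSeq 2 × 250 sequencing and CDR-length filtering followed. Labels for polyreactivity reflect the gate of origin.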

| Sequence | polyreactivity (PSR sort gate) |
| --- | --- |
| QVQLVESGGGLVQAGGSLRLSCADSASIFRNAMGWYRQAPRKERELVAGIRWSDGSTNYADSVKGRFTISRDNANITVYLQMNSLKPEDTAVYYCAKGAYFARRMYYWGQGTQVTVSS | low polyreactivity |
| QVQLVESGGGLVQAGGSLRLSCADSASTLVVNGMGWYRQAPGKERELVASISSDGSTNYADSVKGRFTISRDNAKNTVYLQMNSLKPEDTAFYYCAADEGNGQASLSSNLYDYWGQGTQVTVSS | low polyreactivity |
| QVQLVESGGGLVQAGGSLRLSCADSGFILDYNTMGWYRQAPGKERELVAAISSSGDTTYYADSVKGRFTISRDNAKNTVYLQMNSLKPEDTAVYYCAREYGDGYEYWGQGTQVTVSS | low polyreactivity |
| QVQLVESGGGLVQAGGSLRLSCADSGFTFSSYAMGWYRQAPGKDRELVAAISTRGGSTYYADSVKGRFTISRDYANKTVYLQMNSLKPEDTAVYYCATGGRGGRRYEYWGQGTQVTVSS | low polyreactivity |
| QVQLVESGGGLVQAGGSLRLSCADSGFTFYFYAMGWYRQAPGKEREFIATINFISGSTYYADSVKGGVTISRDNAKNTVYLQMNSLKPEDTAVYYCNKPFPYYPDGPNGYDYWGQGTQVTVSS | low polyreactivity |
| QVQLVESGGGLVQAGGSLRLSCADSGITFDWNTMGWYRQAPGKERELVAAITFRSGSTYYADSVKGRFTISRDNAKNTVYLQMNSLKPEDTAVYYCNKDTAYTSPRFDYWGQGTQVTVSS | high polyreactivity |
| QVQLVESGGGLVQAGGSLRLSCADSGITFSRYAMGWYRQAPGKERELVAAITRRGGNTYYADSVKGRFTISRDIAKNTVYLQMNSLKPVDTAVYYCASGYTYYGGDYWGQGTQVTVSS | high polyreactivity |
| QVQLVESGGGLVQAGGSLRLSCADSGITFYGSAMGWYRQAPGQERELVAAISKSGGSTHYADSVKGRFTISRDNAKNTVYLQMNSLKPEDTAVYYCAAAYWTRLRRMDYWGQGTQVTVSS | low polyreactivity |
| QVQLVESGGGLVQAGGSLRLSCADSGNTFYVDTMGWYREAPGKESELVAAIYSTGDRTYYADSLKGRFTISRYKAKNTVYLQMNRLKPEDTAVYYWAARLYRGSLGYYFWGQVTQVTVSS | high polyreactivity |
| QVQLVESGGGLVQAGGSLRLSCADSGRIFATNAMGWYRHAPGKERELVATITRSAGRTYYADSVKGRFTISRDNAKNTVYLQMNSLKPEDTAVYYCAASYWDTERGYREYDYWGQGTQVTVSS | low polyreactivity |
| QVQLVESGGGLVQAGGSLRLSCADSGRIFGPYAMGWYRKAPGKERELVAAIRASSSTYYADSVKGRFTISRDNAKNTVYLQMNSLKPEDTAVYYCAADWYYGYAWKYGYWGQGTQVTVSS | low polyreactivity |
| QVQLVESGGGLVQAGGSLRLSCADSGRIFGTSAMGWYRQAPGKERELVATISYSSGRTYYADSVKGRFTISRDNAKNTVYLQMNSLKPEDTAVYYCARRRRSGSRQYYYWGQGTQVTVSS | high polyreactivity |
| QVQLVESGGGLVQAGGSLRLSCADSGRIFGYNAMGWYRQAPGKEREFVAAITTSGGSTYYADSVKGRFTISRDNAKKTVFLQMTSLKPEDTAVYYCARDSLHVFYPYASDDYWGQGTQVTVSS | low polyreactivity |
| QVQLVESGGGLVQAGGSLRLSCADSGRIFVGNAMGWYRQAHGKERELVAAITSSGGSTYYADSVKGRFTISRDNAKNTVYLQMNSLKPEDTAVYYCAARVPYRLKAQPFSNRGYYWGQGTQVTVSS | high polyreactivity |
| QVQLVESGGGLVQAGGSLRLSCADSGRIFYANAMGWYRQAPGKERELVAAISSGGSTYYADSVKGRFTISRDNAKNTVYLQMNSLKPEDTAVYYCAVYTHKIVRPEYDYWGQGTQVTVSA | low polyreactivity |
| QVQLVESGGGLVQAGGSLRLSCADSGRIITVYDMGWYRQAPGKEREYVAAISDTDSSTYADSVKGRFTISRDNAKNTVYLQMNSLKPEDTAVYYCNAVGDIFGRVSTEYEYWGQGTQVTVSA | low polyreactivity |

| Sequence | polyreactivity (PSR sort gate) |
| --- | --- |
| QVQLVESGGGLVQAGGSLRLSCADSGRIIYKNAMGWYRQAPGKERELVAAITSSGGSTYYADSVKGRFTISRDNAKNTVYLQMNSLTPVDTAVYYCAAYAYVRFGKLNYWGQGTQVTVSS | low polyreactivity |
| QVQLVESGGGLVQAGGSLRLSCADSGRTFGSNAMGWYRQAPGKERELVAAISSTVSTNYADSVKGRFTISRDNAKNTVYLQMNSLKPEDTAVYYCNVTRHYSYVSEYDYWGQGTQVTVSS | low polyreactivity |
| QVQLVESGGGLVQAGGSLRLSCADSGRTFRGNAMGWYRQAPGKERELVAAISWSGDSTYYADSVKGRFTISRDNAKNSVYLQMNSLKPEDTAVYYCNRDYGLQRYRGWYQYNYWGQGTQVTVSS | low polyreactivity |
| QVQLVESGGGLVQAGGSLRLSCADSGRTFTKYAMGRYRQAPGKERELVAAISRSGGSTYYADSVKGRFTISRVNAKNTVYLQMNSLKPEDTAVYYCAARRYRASSRGYGYWGQGTQVTVSS | high polyreactivity |
| QVQLVESGGGLVQAGGSLRLSCADSGRTIDVYAMGWYRHAPGKEREFVAAISTGASTCYADSVKGRFTISRDNAKNTVYLQMNSLKTEDTGVYYCAKRVTRWYGYWGQGTQVTVSA | high polyreactivity |
| QVQLVESGGGLVQAGGSLRLSCADSGRTLSVYAMGWYRQAPGKESELVAAITWRGGSTYYADSVKGRFTISRDNAKNTVYLQMNSLKPEDTAVYYCAAEDYTYNGGGFEYWGQGTQVTVAS | low polyreactivity |
| QVQLVESGGGLVQAGGSLRLSCADSGRTLVRYTMRGYRQAPGKERDLVASISQRGGTTYYADSVKGRFTISRDNAKNTVYLQMNSLKPEDTAVYYCAAGIHGRYARDWYEYWGQGTQVTVSS | low polyreactivity |
| QVQLVESGGGLVQAGGSLRLSCADSGSIFAYYAMGWYRQAPGKERELVADITSSGGITYYADSVKGRFTISRDNAKNTVYLQMNSLKPEDTAVYYCNADSLAIVGGSYPYDYWGQGTQVTVSS | low polyreactivity |
| QVQLVESGGGLVQAGGSLRLSCADSGSIFDDYTMGWYRQAPGKERELVAVITTGGTTYYADSVKGRFTISRDNAKNTVYLQMNSLKPEDTAVYYCAAKEANRYRRYYWGQGTQVTVSS | high polyreactivity |
| QVQLVESGGGLVQAGGSLRLSCADSGSIFDFNALGWYRQAPRKERELVAAITWSGGSTYYSDSVKGRFTISRDYAKNTVYLQMNSLKPEDTAVYYCAADSLYDDFYYWGQGTQVTVSS | low polyreactivity |
| QVQLVESGGGLVQAGGSLRLSCADSGSIFGVNVMGWYRQAPGKDRELVAAITSIGGRTYYADSVKGRFTISRDNAKNTVYLQMNSLKPEDTAVYYCNADYTGAEYDYWGQGTQVTVSS | low polyreactivity |
| QVQLVESGGGLVQAGGSLRLSCADSGSIFLWNTMGWYRQAPGKERELVAAINFSGTRTYYADSVKGRFTISRDNAKNTVYLQMNSLKPEDTAVYYCNARTSRRLDYDYWGQGTQVTVSS | high polyreactivity |
| QVQLVESGGGLVQAGGSLRLSCADSGSIFSPYAMGWYRQAPGKERELVAAITNSGGRTYYADSVKGRFTISRDNAKNTVYLQMNSLKPEDTAVYYCNADYGKHHPDYYYWGQGTQVTVSS | low polyreactivity |
| QVQLVESGGGLVQAGGSLRLSCADSGSIFVKNAMGWYRQAPGKERELVATISTGGRTYYADSVKGRFTISLDNAKNTVYLQMNSLKPEDTAVYYCATDFYPRYLLRTYRPYYYWGQGTQVTVSS | low polyreactivity |
| QVQLVESGGGLVQAGGSLRLSCADSGSIFWLYAMGWYRQAPGKERELVAAIDSGDSTKYADSVKGRFTISRDNAKNTVYLQMNSLKPEDTAVYYCNASRRYHVRAPYDYWGQGTQVTVSS | low polyreactivity |
| QVQLVESGGGLVQAGGSLRLSCADSGSIFYGYTMGWYRQAPGKERELVAAISSSGGSTYYADSVKGRFTISRDNAKNTVYLQMNSLKPEDTAVYYCAAYVPYSPDHVEFNYWGQGTQVTVSS | high polyreactivity |
